Columns and labels:
Assay in all cases: peptide SPOT membrane
[1] = molecular target: 15mer peptide 55 of H5 (A/Anhui/1/2005) (Influenza A virus A/Anhui/1/2005 (H5N1))
[2] = molecular target: 15mer peptide 56 of H5 (A/Anhui/1/2005) (Influenza A virus A/Anhui/1/2005 (H5N1))
[3] = molecular target: 15mer peptide 57 of H5 (A/Anhui/1/2005) (Influenza A virus A/Anhui/1/2005 (H5N1))

Measured: binding result

B1: scFv-murine IgG1 Fc fusion of clone 8 (JM6_SC-D3) (Fc fusion)
chain: MAAVTLDESGGGLQKPGGGLSLVCKASGFPFSSYSMQWVRQAPGKGLEWVAGIGNAGSYTGYGAAVKGRATISRDNGQSTVRLQLNNLRAEDTGTYYCAKSAYAGSCAGCVDSIDAWGHGTEVMVSSGSASAPKLEEGEFSEARVALTQPSSVSANPGETVKITCSGDDSWYGWYQQKSPGSAPVTVIYYNNNRPSDIPLRFSGSTSGSTSTLTITGVQADDEAVYFCGSWDRSSGAGIFGAGTTLTVLGAA
no binding: [1] | [2] | [3]

— EP2646050B1 (mAB-Factory GmbH, dated 2016)
